Test results reported in paper PMC6078952, “Insights into the structure and dynamics of lysyl oxidase propeptide, a flexible protein with numerous partners” (Scientific Reports, 2018).

T1: Collagen VI (vWF1 domain) (UniProt P12109 20-256)
T1 construct: collagen alpha-1(VI) chain, UniProtKB P12109, residues 20-256 (vWF1 domain); also called Collagen VI alpha 1 chain (vWF1 domain); source: Expressed in the laboratory (PMID 24117177)
T1 sequence (looked up): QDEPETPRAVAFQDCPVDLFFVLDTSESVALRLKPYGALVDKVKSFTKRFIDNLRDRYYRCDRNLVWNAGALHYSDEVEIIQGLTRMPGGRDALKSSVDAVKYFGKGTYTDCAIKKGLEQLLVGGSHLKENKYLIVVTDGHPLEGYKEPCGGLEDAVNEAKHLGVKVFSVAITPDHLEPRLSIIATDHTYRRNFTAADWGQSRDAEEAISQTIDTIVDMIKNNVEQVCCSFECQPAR

T2: Dermatopontin (UniProt Q07507 19-201)
T2 construct: dermatopontin, UniProtKB Q07507; source: bought: Abcam, ab158310
T2 sequence (looked up): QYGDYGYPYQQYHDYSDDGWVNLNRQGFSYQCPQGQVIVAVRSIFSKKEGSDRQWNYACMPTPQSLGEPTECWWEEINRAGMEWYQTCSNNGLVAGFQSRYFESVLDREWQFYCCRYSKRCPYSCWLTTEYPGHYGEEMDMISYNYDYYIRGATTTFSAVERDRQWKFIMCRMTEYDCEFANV

T3: Transglutaminase-2 (TG-2), mutant Cys277Ser (UniProt P21980 1-687, Cys277Ser)
T3 construct: transglutaminase-2, UniProtKB P21980; source: bought: Zedira, T018
T3 sequence (looked up): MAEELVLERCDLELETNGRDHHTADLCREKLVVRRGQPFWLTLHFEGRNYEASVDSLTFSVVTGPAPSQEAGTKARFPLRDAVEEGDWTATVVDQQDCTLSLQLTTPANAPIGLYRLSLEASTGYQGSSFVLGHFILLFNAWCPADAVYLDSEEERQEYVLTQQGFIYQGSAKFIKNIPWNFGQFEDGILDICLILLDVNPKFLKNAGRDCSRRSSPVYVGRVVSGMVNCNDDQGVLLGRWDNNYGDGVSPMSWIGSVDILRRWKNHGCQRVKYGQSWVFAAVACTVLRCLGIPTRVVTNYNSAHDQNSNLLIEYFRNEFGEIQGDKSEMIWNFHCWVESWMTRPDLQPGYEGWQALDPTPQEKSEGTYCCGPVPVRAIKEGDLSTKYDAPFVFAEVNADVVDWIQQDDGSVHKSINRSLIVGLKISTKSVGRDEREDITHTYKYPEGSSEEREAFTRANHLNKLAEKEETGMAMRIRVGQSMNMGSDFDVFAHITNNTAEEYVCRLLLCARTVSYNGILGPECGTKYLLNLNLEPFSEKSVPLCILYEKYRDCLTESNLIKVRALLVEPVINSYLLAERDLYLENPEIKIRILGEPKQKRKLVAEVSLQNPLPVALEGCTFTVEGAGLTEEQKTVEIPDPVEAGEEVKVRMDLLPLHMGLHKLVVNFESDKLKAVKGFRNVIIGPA

T4: Fibromodulin (UniProt P13605 19-376)
T4 construct: proteoglycan; source: bought: Sigma-Aldrich, F6921
T4 sequence (looked up): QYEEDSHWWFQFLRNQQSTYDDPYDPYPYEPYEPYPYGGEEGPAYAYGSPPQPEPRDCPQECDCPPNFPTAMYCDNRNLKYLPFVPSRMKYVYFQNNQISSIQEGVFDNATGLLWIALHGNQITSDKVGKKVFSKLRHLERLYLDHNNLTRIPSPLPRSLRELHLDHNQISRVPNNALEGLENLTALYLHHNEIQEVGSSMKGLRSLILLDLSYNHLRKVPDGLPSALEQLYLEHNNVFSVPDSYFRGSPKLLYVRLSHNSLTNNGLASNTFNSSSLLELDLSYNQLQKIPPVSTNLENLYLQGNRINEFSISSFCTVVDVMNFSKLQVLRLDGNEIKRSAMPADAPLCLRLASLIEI

T5: Lysyl oxidase homolog 2 (LOXL2) (UniProt Q9Y4K0 26-774)
T5 construct: lysyl oxidase homolog 2, UniProtKB Q9Y4K0; also called lysyl oxidase-like 2; source: bought: R&D Systems, 2639-AO
T5 sequence (looked up): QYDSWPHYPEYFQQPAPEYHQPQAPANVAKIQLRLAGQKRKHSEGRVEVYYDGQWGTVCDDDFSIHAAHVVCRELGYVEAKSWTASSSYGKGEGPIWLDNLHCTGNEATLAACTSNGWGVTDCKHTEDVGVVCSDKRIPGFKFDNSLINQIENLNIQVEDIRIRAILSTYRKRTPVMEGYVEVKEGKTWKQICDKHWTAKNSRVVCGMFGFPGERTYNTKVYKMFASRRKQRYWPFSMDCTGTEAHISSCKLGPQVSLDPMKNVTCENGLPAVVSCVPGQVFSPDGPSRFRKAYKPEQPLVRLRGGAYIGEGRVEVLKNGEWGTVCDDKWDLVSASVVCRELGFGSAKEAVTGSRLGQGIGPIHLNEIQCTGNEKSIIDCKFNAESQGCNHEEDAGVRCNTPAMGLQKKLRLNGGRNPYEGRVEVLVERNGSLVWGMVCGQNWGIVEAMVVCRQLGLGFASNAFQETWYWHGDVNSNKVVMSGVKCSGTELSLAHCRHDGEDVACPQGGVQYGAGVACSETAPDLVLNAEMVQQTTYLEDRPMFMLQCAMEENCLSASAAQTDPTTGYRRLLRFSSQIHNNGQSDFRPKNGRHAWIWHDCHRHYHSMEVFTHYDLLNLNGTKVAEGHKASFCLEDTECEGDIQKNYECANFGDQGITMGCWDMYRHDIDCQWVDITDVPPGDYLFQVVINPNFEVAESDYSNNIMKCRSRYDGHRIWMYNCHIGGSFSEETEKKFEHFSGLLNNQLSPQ

T6: Matrix metalloproteinase-2 (MMP-2) (UniProt P08253 30-660)
T6 construct: matrix metalloproteinase-2, UniProtKB P08253, residues 30-660; source: bought: R&D Systems, 902-MPN
T6 sequence (looked up): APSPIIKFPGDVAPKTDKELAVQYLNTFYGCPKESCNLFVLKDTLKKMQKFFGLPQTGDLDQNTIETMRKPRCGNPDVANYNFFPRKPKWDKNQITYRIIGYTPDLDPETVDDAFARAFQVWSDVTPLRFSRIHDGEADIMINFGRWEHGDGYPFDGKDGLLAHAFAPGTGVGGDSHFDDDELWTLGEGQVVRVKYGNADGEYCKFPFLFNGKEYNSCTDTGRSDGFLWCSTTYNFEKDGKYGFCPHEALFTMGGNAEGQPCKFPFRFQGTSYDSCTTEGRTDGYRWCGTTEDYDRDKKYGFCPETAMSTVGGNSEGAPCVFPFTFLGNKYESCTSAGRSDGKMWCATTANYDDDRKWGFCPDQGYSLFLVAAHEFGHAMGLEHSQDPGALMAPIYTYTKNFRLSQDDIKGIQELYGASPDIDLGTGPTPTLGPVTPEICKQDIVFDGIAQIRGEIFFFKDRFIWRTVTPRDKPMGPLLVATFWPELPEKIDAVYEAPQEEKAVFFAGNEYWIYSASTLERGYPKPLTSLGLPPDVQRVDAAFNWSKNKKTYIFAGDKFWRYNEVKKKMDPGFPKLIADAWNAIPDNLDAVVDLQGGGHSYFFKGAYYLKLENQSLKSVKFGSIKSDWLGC

B1: Lysyl oxidase propeptide (LOX-PP) (Pro24Leu) (domain or fragment, human, UniProt P28300 22-168, looked up)
chain: APLAAGQQQPPREPPAAPGAWRQQIQWENNGQVFSLLSLGSQYQPQRRRDPGAAVPGAANASAQQPRTPILLIRDNRTAAARTRTAGSSGVTAGRPRPTARHWFQAGYSTSRAREAGASRAENQTAPGEVPALSNLRPPSRVDGMVG
modifications: N-linked glycans (removed by PNGase F)
notes: propeptide of human lysyl oxidase, UniProtKB P28300, residues 22-168; expressed from the pCEP-Pu-BM40 vector; also called propeptide of human lysyl oxidase; source: HEK293-EBNA, purified (anti-FLAG resin)

How the values were obtained:
Test in all cases: SPR; SPR imaging (SPRi, Biacore Flexchip): partners spotted in triplicate on a bare gold chip at 0.06 to 1 mg/ml; purified LOX-PP injected at 2 µM and recirculated for 20 min; PBS with 0.05% Tween 20, 25 °C
Details in all cases: both partners purified
[1] = molecular target: B1
[2] = molecular target: T1, Collagen VI (vWF1 domain)
Dermatopontin = molecular target: T2, Dermatopontin
[3] = molecular target: T3, Transglutaminase-2 (TG-2), mutant …
Fibromodulin = molecular target: T4, Fibromodulin
[4] = molecular target: T5, Lysyl oxidase homolog 2 (LOXL2)
[5] = molecular target: T6, Matrix metalloproteinase-2 (MMP-2)

| binding result [1] | binding result [2] | binding result (Dermatopontin) | binding result [3] | binding result (Fibromodulin) | binding result [4] | binding result [5] | Binder |
| --- | --- | --- | --- | --- | --- | --- | --- |
| binds | – | – | – | – | – | – | Epidermal growth factor (EGF) (ligand, UniProt P01133 971-1023, looked up, epidermal growth factor, feature PRO_0000007541 of pro-epidermal growth factor, UniProtKB P01133; source: bought: Sigma-Aldrich, E9644) NSDSECPLSHDGYCLHDGVCMYIEALDKYACNCVVGYIGERCQYRDLKWWELR |
| binds | – | – | – | – | – | – | Fibronectin fragment III1-C (anastellin) (domain or fragment, anastellin, fragment III1-C of fibronectin, UniProtKB P02751, residues 631-702; source: bought: Sigma-Aldrich, F3542) not shown |
| – | binds | binds | binds | binds | binds | binds | B1 |
